The values that follow come from patent US20210163536A1.

Bridges are numbered along the chain shown (N, C = ends). [ ]: non-standard residue; d: D form.

Assay [1] concerns the target human melanocortin-3 receptor (human) (UniProt P41968). The assay can be described thus: cell-based or functional assay.
The target in assay [2] is human melanocortin-4 receptor (human) (UniProt P32245). The assay can be described thus: cell-based or functional assay.
In assay [3] the target is human melanocortin-1 receptor (human) (UniProt Q01726). The assay can be described thus: competition with [125I]-NDP-alpha-MSH, CHO-K1 cell membranes.
For assay [4], the target named is human melanocortin-3 receptor (human) (UniProt P41968). Described as above.
Assay [5] deals with human melanocortin-4 receptor (human) (UniProt P32245). Described as above.

Sequence of human melanocortin-4 receptor (human) (P32245 whole entry): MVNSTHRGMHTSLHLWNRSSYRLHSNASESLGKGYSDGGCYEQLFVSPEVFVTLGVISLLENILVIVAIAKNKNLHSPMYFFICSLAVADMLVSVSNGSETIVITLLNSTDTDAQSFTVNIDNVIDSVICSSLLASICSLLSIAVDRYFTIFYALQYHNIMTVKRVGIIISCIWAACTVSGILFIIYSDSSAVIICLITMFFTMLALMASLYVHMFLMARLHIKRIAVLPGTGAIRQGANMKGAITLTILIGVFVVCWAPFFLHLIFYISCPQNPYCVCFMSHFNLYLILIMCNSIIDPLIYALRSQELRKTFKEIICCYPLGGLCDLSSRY
Sequence of human melanocortin-3 receptor (human) (P41968 whole entry): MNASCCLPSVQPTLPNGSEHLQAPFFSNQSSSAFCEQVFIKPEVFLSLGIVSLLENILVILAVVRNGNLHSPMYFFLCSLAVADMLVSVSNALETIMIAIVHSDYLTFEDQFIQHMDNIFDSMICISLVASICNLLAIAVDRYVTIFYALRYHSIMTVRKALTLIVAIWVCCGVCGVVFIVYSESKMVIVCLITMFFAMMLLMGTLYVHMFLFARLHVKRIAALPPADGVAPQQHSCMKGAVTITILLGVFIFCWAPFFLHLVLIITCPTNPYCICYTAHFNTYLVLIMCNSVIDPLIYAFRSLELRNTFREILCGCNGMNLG
Sequence of human melanocortin-1 receptor (human) (Q01726 whole entry): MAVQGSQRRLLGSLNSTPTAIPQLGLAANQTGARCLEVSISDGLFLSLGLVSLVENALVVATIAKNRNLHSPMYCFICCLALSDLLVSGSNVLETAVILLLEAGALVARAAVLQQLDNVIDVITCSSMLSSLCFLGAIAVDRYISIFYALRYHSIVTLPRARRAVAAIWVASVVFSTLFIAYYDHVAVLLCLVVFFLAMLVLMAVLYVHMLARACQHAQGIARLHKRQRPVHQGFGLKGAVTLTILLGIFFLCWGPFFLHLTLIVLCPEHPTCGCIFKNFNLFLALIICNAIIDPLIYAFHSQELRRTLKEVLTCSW

B1: cyclo[Hydantoin(C(O)-(Glu-D-Ala))-His-D-Phe-Arg-Trp-Lys]-NH2 (peptide)
peptide: H[dF]RWK-NH2
modifications: lactam N-5; not fully specified (N-terminus); printed as cyclo[Hydantoin(C(O)-(Glu-D-Ala))-His-D-Phe-Arg-Trp-Lys]-NH2; also: hydantoin ring from Glu and D-Ala with C(O) joining their backbone nitrogens
One may read the Ki as the equilibrium dissociation constant of an inhibitor or competing ligand from its target. A lower Ki goes with tighter binding. For the molecule B1, the EC50, intracellular cyclic AMP (cAMP) levels in assay [1] is 22.3 nM; in assay [2] it was 3.62 nM. Also, the figures for the inhibitory constant (Ki) in assay [3], in assay [4] and in assay [5] were 72.6 nM, 1920 nM and 45.2 nM, respectively.
